This is an account of results in publication PMC6843132, “The Plant NF-Y DNA Matrix In Vitro and In Vivo” (Plants, 2019).

This assay deals with T1, At NF-YB2/NF-YC3 histone fold domain (HFD) dimer (A. thaliana, UniProt Q9FGJ3 24-116; Q9ZVL3 55-148).
T1 construct: Nuclear factor Y subunit B2 (AtNF-YB2), Arabidopsis thaliana, aa 24-116, histone fold domain; Nuclear factor Y subunit C3 (AtNF-YC3), Arabidopsis thaliana, aa 55-148, histone fold domain; Preformed heterodimer; the 6His tag was removed with thrombin before gel filtration; also called AtNF-YB2/AtNF-YC3; HFD subunits; source: E. coli, co-expressed, purified (IMAC, thrombin cleavage, gel …)
T1 sequence (looked up) 1: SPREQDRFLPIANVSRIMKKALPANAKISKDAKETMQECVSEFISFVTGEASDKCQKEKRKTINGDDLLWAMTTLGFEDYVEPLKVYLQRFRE
T1 sequence (looked up) 2: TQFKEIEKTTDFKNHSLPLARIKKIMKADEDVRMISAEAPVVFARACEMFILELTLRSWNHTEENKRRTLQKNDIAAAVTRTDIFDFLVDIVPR
The assay can be described thus: native gel or EMSA; NF-YA subunit (60-240 nM) with HFD dimer (30 nM) and Cy5-labelled 31 bp CAB2 CCAAT DNA probe (20 nM); 12 mM Tris-HCl pH 8.0, 50 mM NaCl, 50 mM KCl, 5 mM MgCl2, 30 °C 30 min; 6% polyacrylamide, 0.25X TBE; trimer read out as the shifted DNA complex. The following applies: both partners purified.

B1: AtNF-YA2-6His (aa 134-207) (domain or fragment)
chain: not shown
notes: Nuclear factor Y subunit A2 (AtNF-YA2), Arabidopsis thaliana, aa 134-207, evolutionarily conserved domain; source: E. coli, purified (IMAC); not shown: His6, C-terminal, kept
In the case of B1, the binding result was “binds”.

B2: AtNF-YA6-6His (aa 170-237) (domain or fragment)
chain: not shown
notes: Nuclear factor Y subunit A6 (AtNF-YA6), Arabidopsis thaliana, aa 170-237, evolutionarily conserved domain; source: E. coli, purified (IMAC); not shown: His6, C-terminal, kept
For B2, the binding result was “binds”.
